For the experiment, the target named is human BAFF (residues 82-285) (human) (UniProt Q9Y275). Put plainly: BJAB cell competitive binding assay: soluble BR3-Fc keeps biotin-BAFF from BR3 on the cells.
human BAFF (residues 82-285) (human), sequence (Q9Y275 82-285 limits assumed): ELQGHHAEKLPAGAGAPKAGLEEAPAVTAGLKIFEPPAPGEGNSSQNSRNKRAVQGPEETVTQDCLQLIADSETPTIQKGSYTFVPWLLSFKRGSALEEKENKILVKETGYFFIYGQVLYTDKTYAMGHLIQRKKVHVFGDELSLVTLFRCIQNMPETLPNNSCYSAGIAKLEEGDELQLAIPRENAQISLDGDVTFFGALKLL

One may read the IC50 as the concentration that inhibits the measured activity by half. Low readings indicate greater potency, high ones weaker potency. In the case of hBR3Fc (Fc fusion), the IC50 amounted to 3.22 nM.

Source of the values: patent US20100280227A1.
